Here are results for two molecules from US11911450B2, “Method for managing pain” (UNIVERSITY OF MIAMI, priority 2017, dated 2024).

Test [1] concerns neuropathic (Chung) mouse pain model. Briefly: neuropathic (Chung, spinal nerve ligation) mouse pain model, mechanical withdrawal threshold (von Frey). The conditions noted are these: sciatic nerve injection; spinal nerve ligation on Day 19. The class given is in vivo, C57BL/6J mice. As to the method: Sciatic nerve injection of expression vectors (adeno-associated AAV8-V5-Car10 and AAV8-V5-CA10 vectors): Mice were anesthetized by intraperitoneal injection of Ketamine, xylazine and acepromazine cocktail (VEDCO, Saint Joseph, MO). Following sciatic nerve exposure, about 1.5 μl viral particles of AAV8-null (1.36E^13 viral particles, SL100832 SignaGen Laboratories Rockville, MD), AAV8-V5-Car10 and AAV8-V5-CA10 (1.06E^14 viral particles and 1.66E^14 viral particles, respectively) were injected into the sciatic nerve using a 35-gauge Nanofil needle (World Precision Instruments, Sarasota, FL). The sciatic injection site was approximately 45 mm from the tip of the third toe.
Neuropathic pain model: For the induction of peripheral neuropathy, mice were first anesthetized by an intraperitoneal injection of ketamine, xylazine hydrochloride and acepromazine (VEDCO, Saint Joseph, MO). […]
Behavioral tests: Thermal and mechanical sensitivity was measured by Hargreaves test and von Frey filament threshold calculations respectively. […] The mouse hind paw was pressed with one of a series of von Frey filaments with logarithmically incrementing stiffness (Stoelting Co, Wood Dale, IL) presented perpendicular to the plantar surface of each hind paw for 1-2 seconds, the 50% threshold was determined using the Up- and Down method.

The target of another test is T1, RYR1 (Homo sapiens, UniProt P21817).
T1 construct: NBL cells were transfected with AAV-V5-CA10 and AAV-V5-Car10 using Lipofectamin (LTX); endogenous in cells; host or cells: NBL cells transfected with V5-CA10 / V5-Car10 only
The test is described as follows: immunoprecipitation (anti-RYR1) and western blot (anti-V5) in NBL cells. The class given is binding. The conditions noted are these: 48 h after transfection. The protocol:
NBL cells were transfected with AAV-V5-CA10 and AAV-V5-Car10 using Lipofectamin (LTX). Cellular protein was extracted 48 h after transfection.
Immunoprecipitation (IP) and western blotting (WB) was utilized to detect binding. Rabbit anti-RYR1 was used for IP and chicken anti-V5 was used for WB analyses. About 1/10 of the IP protein was used for WB to show the V5 labeled CA10 or Car10 by WB. B-actin was used as a loading control. See FIG. 33, which establishes co-immunoprecipitation of CA10 and RYR.
(In general: In western blotting, separated proteins are transferred to a membrane and probed.)

The target of another test is ITPR1 (Homo sapiens, UniProt Q14643). The test is described as follows: co-immunoprecipitation / western blot with ITPR1 and pITPR1. The conditions noted are these: HEK293 cells, before and after forskolin stimulation. Type of test: binding. Also noted: before and after forskolin stimulation of HEK293 cells was conducted; endogenous in cells; host or cells: HEK293 (ATCC CRL-1573). As to the method:
Immunoprecipitation: Fifty μl magnetic beads (Invitrogen) were incubated with 1 μg pITPR1 antibody for 45 minutes at 4° C. The supernatant was discarded and the beads were washed with binding buffer. Sample proteins of 200-400 μg were added and incubated with the beads for 4 hrs at 4° C. Then the protein complex was washed 3 times with washing buffer, and then eluted with SDS sample buffer. Samples were then heated at 70° C. for 10 min and then subjected to western blot analysis for Car10. The method described herein also is suitable for use in connection with Car8, CA8, CA8 fragment (CA8-204), CA10, Car11 and CA11.
Overexpression of V5-Car10 and V5-CA10 inhibits ATP-induced free calcium release in vitro: ITPR1 contains functionally distinct domains, including the ‘modulatory’ domain responding to intracellular modulators such as calcium, calmodulin, ATP, and carbonic anhydrase-8 (Car8). ATP increases ITPR1-dependent calcium release by increasing the open probability of the channel in the presence of activating concentrations of IP3 and calcium. It is believed that Car8-mediated inhibition of ITPR1 activation and ATP-mediated calcium release requires binding to this modulatory domain. Therefore, the ability of CA8 fragments (e.g., CA8-204), Car10 and CA10 to bind to ITPR1 and pITPR1 was examined. […]

“Also recorded” adds a separate entry of the source.

T1 sequence (P21817 whole entry): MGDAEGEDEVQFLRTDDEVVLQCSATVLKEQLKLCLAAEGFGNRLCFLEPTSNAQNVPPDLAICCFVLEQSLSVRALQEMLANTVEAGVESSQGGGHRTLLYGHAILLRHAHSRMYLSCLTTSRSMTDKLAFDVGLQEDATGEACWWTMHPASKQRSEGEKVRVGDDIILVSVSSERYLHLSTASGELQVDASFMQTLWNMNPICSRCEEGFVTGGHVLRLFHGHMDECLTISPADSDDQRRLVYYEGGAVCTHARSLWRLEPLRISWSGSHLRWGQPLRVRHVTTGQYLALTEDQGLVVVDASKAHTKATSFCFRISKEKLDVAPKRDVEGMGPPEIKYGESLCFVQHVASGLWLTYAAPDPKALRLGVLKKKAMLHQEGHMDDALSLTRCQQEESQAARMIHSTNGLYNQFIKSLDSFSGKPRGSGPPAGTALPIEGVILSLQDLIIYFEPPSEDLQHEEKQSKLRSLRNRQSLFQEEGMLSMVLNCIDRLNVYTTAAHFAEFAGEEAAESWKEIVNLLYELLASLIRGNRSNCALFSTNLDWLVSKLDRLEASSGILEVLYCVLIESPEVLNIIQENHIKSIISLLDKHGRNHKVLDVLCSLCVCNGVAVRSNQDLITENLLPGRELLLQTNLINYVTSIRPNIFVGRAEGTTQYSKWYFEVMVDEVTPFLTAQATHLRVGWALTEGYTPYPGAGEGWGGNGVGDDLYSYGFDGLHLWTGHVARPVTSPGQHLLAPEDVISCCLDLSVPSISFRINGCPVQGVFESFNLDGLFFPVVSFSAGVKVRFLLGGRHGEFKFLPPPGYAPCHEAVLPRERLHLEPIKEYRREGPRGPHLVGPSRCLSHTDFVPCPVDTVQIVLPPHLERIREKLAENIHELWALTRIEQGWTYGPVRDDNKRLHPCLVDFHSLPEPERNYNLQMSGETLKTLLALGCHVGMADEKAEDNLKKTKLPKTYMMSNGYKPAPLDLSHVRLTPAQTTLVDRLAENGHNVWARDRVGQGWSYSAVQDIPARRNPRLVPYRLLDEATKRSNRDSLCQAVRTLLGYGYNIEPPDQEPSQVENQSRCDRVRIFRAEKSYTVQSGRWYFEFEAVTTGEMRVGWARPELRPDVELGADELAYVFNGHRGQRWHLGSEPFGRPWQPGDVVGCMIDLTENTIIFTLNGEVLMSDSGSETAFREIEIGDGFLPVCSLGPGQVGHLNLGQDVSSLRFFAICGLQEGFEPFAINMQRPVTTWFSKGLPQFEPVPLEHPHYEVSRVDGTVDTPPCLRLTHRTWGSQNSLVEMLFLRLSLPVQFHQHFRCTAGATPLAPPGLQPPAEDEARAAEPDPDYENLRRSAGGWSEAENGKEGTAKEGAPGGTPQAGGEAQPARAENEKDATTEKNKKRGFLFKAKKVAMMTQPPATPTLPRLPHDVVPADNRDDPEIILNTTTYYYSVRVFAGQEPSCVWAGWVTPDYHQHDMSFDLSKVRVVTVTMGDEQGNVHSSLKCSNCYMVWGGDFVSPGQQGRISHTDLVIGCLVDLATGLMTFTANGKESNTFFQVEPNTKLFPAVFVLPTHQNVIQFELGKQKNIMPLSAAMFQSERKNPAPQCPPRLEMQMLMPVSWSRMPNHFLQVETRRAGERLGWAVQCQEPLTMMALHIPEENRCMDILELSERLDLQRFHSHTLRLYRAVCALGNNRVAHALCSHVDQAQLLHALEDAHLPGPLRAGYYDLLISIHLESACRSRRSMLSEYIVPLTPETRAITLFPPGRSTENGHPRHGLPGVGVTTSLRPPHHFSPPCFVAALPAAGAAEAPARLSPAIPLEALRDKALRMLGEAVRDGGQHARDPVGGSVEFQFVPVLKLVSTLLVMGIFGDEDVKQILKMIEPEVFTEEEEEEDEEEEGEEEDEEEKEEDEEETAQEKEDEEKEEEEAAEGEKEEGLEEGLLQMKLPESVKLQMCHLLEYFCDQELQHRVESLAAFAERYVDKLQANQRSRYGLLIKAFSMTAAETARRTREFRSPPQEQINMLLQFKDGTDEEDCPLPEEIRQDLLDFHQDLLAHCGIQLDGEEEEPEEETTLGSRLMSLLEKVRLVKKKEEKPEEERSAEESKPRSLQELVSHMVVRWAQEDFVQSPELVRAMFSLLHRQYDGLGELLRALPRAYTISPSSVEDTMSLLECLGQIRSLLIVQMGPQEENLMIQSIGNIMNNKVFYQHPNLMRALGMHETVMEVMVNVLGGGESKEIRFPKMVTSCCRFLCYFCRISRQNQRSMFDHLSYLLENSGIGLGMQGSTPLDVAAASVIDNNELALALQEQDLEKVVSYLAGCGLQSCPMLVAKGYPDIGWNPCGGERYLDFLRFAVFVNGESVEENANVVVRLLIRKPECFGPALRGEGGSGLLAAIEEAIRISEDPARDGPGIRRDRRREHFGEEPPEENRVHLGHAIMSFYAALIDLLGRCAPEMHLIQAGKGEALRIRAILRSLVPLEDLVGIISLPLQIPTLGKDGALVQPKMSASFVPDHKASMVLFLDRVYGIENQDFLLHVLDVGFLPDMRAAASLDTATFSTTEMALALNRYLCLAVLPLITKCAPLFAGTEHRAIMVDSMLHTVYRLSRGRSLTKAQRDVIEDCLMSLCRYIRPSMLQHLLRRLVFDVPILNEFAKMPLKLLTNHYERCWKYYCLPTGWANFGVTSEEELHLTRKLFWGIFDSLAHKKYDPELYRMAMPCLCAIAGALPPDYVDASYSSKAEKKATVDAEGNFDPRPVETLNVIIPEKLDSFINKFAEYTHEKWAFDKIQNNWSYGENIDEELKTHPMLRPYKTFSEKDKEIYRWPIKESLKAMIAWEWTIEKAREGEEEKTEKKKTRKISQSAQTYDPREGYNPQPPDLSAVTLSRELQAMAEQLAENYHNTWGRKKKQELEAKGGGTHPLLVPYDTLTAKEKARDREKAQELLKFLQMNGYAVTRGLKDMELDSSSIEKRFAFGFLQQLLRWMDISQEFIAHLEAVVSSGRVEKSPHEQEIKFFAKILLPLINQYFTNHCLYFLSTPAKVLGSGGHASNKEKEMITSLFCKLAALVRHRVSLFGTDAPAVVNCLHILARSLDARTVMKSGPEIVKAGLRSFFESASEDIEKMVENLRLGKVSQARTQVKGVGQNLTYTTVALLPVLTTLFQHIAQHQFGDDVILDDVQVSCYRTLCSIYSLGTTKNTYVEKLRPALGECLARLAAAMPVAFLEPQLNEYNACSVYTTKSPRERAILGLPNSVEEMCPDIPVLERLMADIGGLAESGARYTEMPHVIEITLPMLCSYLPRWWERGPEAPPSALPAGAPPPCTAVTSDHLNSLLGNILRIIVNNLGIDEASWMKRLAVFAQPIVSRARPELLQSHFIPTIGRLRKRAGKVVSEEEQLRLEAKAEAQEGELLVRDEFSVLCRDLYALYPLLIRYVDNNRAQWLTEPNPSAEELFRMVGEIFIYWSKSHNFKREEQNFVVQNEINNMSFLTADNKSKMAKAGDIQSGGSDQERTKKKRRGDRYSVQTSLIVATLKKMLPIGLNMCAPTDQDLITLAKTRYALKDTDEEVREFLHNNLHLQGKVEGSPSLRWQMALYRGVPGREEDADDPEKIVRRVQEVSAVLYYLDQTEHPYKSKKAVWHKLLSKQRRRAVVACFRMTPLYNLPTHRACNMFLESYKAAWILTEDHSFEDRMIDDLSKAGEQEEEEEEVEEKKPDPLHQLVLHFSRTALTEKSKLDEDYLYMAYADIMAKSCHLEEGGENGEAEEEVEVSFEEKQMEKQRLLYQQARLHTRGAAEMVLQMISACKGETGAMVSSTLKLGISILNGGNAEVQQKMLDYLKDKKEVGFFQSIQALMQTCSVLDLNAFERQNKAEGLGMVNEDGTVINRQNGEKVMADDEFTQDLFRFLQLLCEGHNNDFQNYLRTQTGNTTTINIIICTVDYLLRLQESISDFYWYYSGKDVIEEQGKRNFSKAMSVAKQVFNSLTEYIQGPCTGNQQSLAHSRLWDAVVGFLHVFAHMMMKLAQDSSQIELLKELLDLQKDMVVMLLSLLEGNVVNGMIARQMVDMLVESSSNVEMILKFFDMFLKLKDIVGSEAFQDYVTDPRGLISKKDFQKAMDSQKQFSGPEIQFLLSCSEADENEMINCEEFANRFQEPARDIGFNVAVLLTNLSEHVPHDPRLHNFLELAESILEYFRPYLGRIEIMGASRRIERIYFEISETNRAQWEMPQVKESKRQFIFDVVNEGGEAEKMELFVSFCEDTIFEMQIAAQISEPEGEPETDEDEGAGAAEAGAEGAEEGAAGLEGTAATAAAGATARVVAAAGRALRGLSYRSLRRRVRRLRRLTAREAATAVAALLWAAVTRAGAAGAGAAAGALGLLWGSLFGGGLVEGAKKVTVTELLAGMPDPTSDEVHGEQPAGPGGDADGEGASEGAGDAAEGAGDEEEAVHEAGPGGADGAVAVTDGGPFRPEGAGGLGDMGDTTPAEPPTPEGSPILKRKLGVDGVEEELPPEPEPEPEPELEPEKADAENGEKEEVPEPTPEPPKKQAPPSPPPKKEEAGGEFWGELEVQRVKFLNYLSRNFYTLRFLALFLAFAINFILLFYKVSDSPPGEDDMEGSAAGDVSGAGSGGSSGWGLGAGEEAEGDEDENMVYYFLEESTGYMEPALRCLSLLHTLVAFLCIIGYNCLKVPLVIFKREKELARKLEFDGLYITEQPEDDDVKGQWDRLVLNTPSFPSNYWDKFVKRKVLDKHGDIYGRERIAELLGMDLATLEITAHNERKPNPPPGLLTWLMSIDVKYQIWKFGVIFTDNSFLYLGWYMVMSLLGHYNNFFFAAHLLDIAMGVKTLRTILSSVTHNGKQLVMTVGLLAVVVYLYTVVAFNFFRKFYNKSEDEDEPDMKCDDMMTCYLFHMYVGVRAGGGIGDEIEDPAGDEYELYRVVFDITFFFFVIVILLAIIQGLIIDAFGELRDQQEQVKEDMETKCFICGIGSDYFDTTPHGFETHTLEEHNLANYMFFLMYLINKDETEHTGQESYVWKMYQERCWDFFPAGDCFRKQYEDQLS

B1: Car10: carbonic anhydrase 10, rodent ortholog, overexpressed (V5-tagged) protein (protein)
chain: MEIVWEVLFLLQANFIVCISAQQNSPKIHEGWWAYKEVVQGSFVPVPSFWGLVNSAWNLCSVGKRQSPVNIETSHMIFDPFLTPLRINTGGRKVSGTMYNTGRHVSLRLDKEHLVNISGGPMTYSHRLEEIRLHFGSEDSQGSEHLLNGQAFSGEVQLIHYNHELYTNVTEAAKSPNGLVVVSIFIKVSDSSNPFLNRMLNRDTITRITYKNDAYLLQGLNIEELYPETSSFITYDGSMTIPPCYETASWIIMNKPVYITRMQMHSLRLLSQNQPSQIFLSMSDNFRPVQPLNNRCIRTNINFSLQGKDCPNNRAQKLQYRVNEWLLK
modifications: left off: small tags and cut ends
notes: carbonic anhydrase 10, rodent ortholog, overexpressed (V5-tagged) protein
For the molecule B1, the mechanical withdrawal threshold entry in test [1] is given as “prevents mechanical hyperalgesia”. For the same molecule, the “binding to RYR1 (co-immunoprecipitation)” value in the test with RYR1 is listed as “binds”. For the same molecule, the “binding to ITPR1 (co-immunoprecipitation)” value with ITPR1 is given as “do not bind to ITPR1”.

B2: CA10: human carbonic anhydrase 10, overexpressed (V5-tagged) protein; SEQ ID NO: 9 (protein)
chain: B1 chain
modifications: V5 tag
As for B2, the mechanical withdrawal threshold entry in test [1] is on record as “prevents mechanical hyperalgesia”. Moreover, the “binding to RYR1 (co-immunoprecipitation)” value with RYR1 is “co-immunoprecipitation; also recorded: binds”. For the same molecule, the “binding to ITPR1 (co-immunoprecipitation)” value with ITPR1 is given as “do not bind to ITPR1”.
